Assay results reported in the domain aggregation screens of Martell et al. (2025).

assay: soluble fraction after stress (log2 fold change); higher = more stays soluble; pooled small domains, quantitative proteomics; conditions: stress: 50 degC
In short: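 Quantitative proteomics served as the high-throughput read-out for pooled custom libraries of small protein domains. Each was stressed at 50°C. Aggregation propensity is expressed as the base-two log fold change in soluble protein after stress. A higher value means a larger share of the protein remains in solution.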

Sequence	soluble fraction (log2)
HMYVTGSAIRRLREKRKLTQAQLAAALSVSDKTVSKWETARGLPDITLLEPLARALQVSVPELLSGEEV	-0.255
HMYVVLYPGMARDEAVQVMNELQSRGIDYYEKNGNIYVPKTDENSLRMELANLGYPKTTNNYD	0.0519
HMYYHQIIGLDVVDENGNTLGKIKEILSPGANDVWVVKRKQKNDLLLPVIDDVIKDVDLAAGKVHVELLEG	-0.0975
